This assay addresses T1, B7H3 (UniProt Q5ZPR3 29-534, limits assumed).
T1 construct: whole, on cells; also called CD276
T1 sequence (looked up): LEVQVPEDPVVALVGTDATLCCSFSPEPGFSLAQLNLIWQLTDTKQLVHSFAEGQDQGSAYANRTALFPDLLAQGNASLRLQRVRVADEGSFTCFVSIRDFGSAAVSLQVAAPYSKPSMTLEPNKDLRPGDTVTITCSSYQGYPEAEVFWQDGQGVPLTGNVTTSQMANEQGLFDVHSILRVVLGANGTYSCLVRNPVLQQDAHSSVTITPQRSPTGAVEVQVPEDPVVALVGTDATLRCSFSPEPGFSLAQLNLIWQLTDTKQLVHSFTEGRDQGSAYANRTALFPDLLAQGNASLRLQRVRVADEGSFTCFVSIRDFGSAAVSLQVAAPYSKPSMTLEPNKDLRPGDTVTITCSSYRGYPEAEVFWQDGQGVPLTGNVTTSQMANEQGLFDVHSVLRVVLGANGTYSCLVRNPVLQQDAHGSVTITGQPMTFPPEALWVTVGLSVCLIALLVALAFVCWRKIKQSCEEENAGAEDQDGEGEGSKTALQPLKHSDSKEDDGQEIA
As to the kind of experiment: flow cytometry on A375 cells. On the technique in general: A flow cytometer gives signals particle by particle.

B1: DART-Fc B7H3xCD3 (bispecific antibody)
chain 1: DIQLTQSPSFLSASVGDRVTITCKASQNVDTNVAWYQQKPGKAPKALIYSASYRYSGVPSRFSGSGSGTDFTLTISSLQPEDFATYYCQQYNNYPFTFGQGTKLEIKGGGSGGGGEVQLVESGGGLVQPGGSLRLSCAASGFTFSTYAMNWVRQAPGKGLEWVGRIRSKYNNYATYYADSVKDRFTISRDDSKNSLYLQMNSLKTEDTAVYYCVRHGNFGNSYVSWFAYWGQGTLVTVSSGGCGGGEVAALEKEVAALEKEVAALEKEVAALEKGGGDKTHTCPPCPAPEAAGGPSVFLFPPKPKDTLMISRTPEVTCVVVDVSHEDPEVKFNWYVDGVEVHNAKTKPREEQYNSTYRVVSVLTVLHQDWLNGKEYKCKVSNKALPAPIEKTISKAKGQPREPQVYTLPPSREEMTKNQVSLWCLVKGFYPSDIAVEWESNGQPENNYKTTPPVLDSDGSFFLYSKLTVDKSRWQQGNVFSCSVMHEALHNHYTQKSLSLSPGK
chain 2: QAVVTQEPSLTVSPGGTVTLTCRSSTGAVTTSNYANWVQQKPGQAPRGLIGGTNKRAPWTPARFSGSLLGGKAALTITGAQAEDEADYYCALWYSNLWVFGGGTKLTVLGGGGSGGGGEVQLVESGGGLVQPGGSLRLSCAASGFTFSSFGMHWVRQAPGKGLEWVAYISSDSSAIYYADTVKGRFTISRDNAKNSLYLQMNSLRDEDTAVYYCGRGRENIYYGSRLDYWGQGTTVTVSSGGCGGGKVAALKEKVAALKEKVAALKEKVAALKE
chain 3: not shown
notes: Comparator; also called DART-Fc format B7H3xCD3; B7-H3 x CD3 Bispecific DART-A Diabody
For the molecule B1, the binding result is listed as “binds”.

The record behind these values is patent publication US20200048350A1 (INHIBRX BIOSCIENCES, published 2020).
